T1: human DLL3 protein (human, UniProt Q9NYJ7 27-492, limits assumed)
T1 construct: Soluble human DLL3 protein used in BLI; also called Delta-like protein 3
T1 sequence (looked up): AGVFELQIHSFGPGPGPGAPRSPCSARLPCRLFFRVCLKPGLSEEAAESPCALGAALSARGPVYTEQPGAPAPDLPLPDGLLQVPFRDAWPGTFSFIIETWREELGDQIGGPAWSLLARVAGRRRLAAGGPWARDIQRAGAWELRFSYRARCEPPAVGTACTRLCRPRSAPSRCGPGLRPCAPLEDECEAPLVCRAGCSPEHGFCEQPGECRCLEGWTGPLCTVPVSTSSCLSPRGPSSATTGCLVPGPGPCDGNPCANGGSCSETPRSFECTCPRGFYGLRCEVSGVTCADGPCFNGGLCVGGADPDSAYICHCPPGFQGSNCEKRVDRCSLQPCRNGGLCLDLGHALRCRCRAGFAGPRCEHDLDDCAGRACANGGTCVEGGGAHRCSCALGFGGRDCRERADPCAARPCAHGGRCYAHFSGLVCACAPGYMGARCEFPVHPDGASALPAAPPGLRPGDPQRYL

T2: DLL3 on the surface of DLL3-positive cell lines SHP77 and NCI-H82 (UniProt Q9NYJ7 27-618, limits assumed)
T2 construct: whole, on cells; The cell line of each number is named under assay
T2 sequence (looked up): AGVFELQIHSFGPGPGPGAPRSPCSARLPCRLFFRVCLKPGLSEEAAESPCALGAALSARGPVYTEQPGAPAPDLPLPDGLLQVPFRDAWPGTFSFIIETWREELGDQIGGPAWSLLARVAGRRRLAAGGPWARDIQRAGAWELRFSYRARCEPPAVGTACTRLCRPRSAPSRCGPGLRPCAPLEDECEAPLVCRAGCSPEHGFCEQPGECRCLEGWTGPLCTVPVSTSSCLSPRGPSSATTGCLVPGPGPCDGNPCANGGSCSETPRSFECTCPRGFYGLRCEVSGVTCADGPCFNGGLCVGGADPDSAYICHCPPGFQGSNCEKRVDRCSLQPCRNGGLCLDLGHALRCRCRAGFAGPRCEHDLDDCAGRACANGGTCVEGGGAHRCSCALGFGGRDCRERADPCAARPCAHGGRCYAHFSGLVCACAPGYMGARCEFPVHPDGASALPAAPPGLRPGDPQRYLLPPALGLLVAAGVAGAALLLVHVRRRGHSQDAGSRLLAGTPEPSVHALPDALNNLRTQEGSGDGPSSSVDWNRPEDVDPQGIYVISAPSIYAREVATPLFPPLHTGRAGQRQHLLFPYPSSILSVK

B1: Ab.73 scFv-human IgG Fc (Fc fusion)
chain: DVVMTQSPLSLPVTLGQPASISCRSSQSLGYSDGDTYLIWFLQRPGQSPRRLIYKVSNRDSGVPDRFSGSGSGTDFTLKISRVEAEDVGVYYCMQGTHWPYTFGQGTKLEIKGGGGSGGGGSGGGGSQVQVQESGPGLVKPSETLSLTCTVSTGSFSSHYWSWIRQPPGKSLEYIGYIYYTGTTNYNPSLKSRVTISVDTSKNQFSLNVNSVTAADTAVYYCAREGTFDIWGQGTMVTVSS
notes: Tested as scFv-human IgG Fc; not shown: human IgG Fc
B2: Ab.76 scFv-human IgG Fc (Fc fusion)
chain: EIVMTQSPATLSVSPGERATLSCRASQSVSSNLAWYRQKPGQAPRLFIYGAYTRATDIPARFSGSGSGTEFTLTISSLQSEDFAVYYCQQYNNWPFTFGPGTKVDIKGGGGSGGGGSGGGGSEVQMVESGGVLVQPGMSLRLSCAASGFTFDDYAMHWVRQPPGKGLEWVSVISWNSGSIGYADSVKGRFTISRDNAKNSLYLQMNSLRAEDTAFYYCAKDLEGGVMDFDYWGQGTLVTVSS
notes: not shown: human IgG Fc
B3: Ab.71 scFv-human IgG Fc (Fc fusion)
chain: DIGMTQSPDSLAVSLGERATINCKSSQNVLPNSNKKHYLSWYQQKPGQPPKLLIYLASTRASGVPDRFSGSGSGTDFTLTISSLQAEDVAVYYCQQYYSSPPEWTFGQGTKVEIKGGGGSGGGGSGGGGSQVQLVESGGGVVQPGRSLRLSCVASGFTFSNCGMHWVRQAPGKGLEWVAIIWYDGNIKYYGDSVKGRFTISRDNSKNTLYLQMNSLRVEDTAVYYCGRHDYGGNSFDYWGQGTLVTVSS
notes: as for B1
B4: AMG757 (anti-DLL3 scFv from Amgen's patent, positive control) scFv-human IgG Fc (Fc fusion)
chain: EIVLTQSPGTLSLSPGERVTLSCRASQRVNNNYLAWYQQRPGQAPRLLIYGASSRATGIPDRFSGSGSGTDFTLTISRLEPEDFAVYYCQQYDRSPLTFGCGTKLEIKGGGGSGGGGSGGGGSQVQLQESGPGLVKPSETLSLTCTVSGGSISSYYWSWIRQPPGKCLEWIGYVYYSGTTNYNPSLKSRVTISVDTSKNQFSLKLSSVTAADTAVYYCASIAVTGFYFDYWGQGTLVTVSS
notes: not shown: human IgG Fc
B5: Ab.67 scFv-human IgG Fc (Fc fusion)
chain: DVVVTQSPLSLPVTLGQPASISCRSSQSLVYSDGNTYLNWFQQRPGQSPRRLVYQVSNRDSGVPDRFSGSGSGTDFTLKISGMEAEDAGVYYCMQGTHWPHTFGQGTKLEIKGGGGSGGGGSGGGGSEVHLVESGGGLVQPGGSLKLSCAASGFIFSGSSMHWVRQASGKGLEWIGRIRNKANNYATSYGASVQGRFTMSRDDSKNTAYLQMNSLKAEDTAVYYCTYLSGEFWGQGTLVTVSS
notes: as for B1
B6: Ab.55 scFv-human IgG Fc (Fc fusion)
chain: EVVMTQSPLSLPVTLGQPASVSCRSSQSLLYSDGNTYLIWFQQRPGQSPRRLLYKLSTRDSGVPDRFSGSGSGTDFTLKISRVEAEDVGIYYCMQVTHWPYTFGQGTKLEIKGGGGSGGGGSGGGGSQVQLRESGPGLVKPSETLSLTCTVSGDSLKNSYWGWIRQPPGKGLEWIGYIYYSGTSSYNPSLESRVTFSADTSKNQFSLKLSSVTAADTAVYYCSREGSFDVWGRGTLVTVSS
notes: as for B1
B7: Ab.63 scFv-human IgG Fc (Fc fusion)
chain: QIVLTQSPGTLSLSPGERATLSCRASQSVTRGYLAWYQQKPGQAPRLLFYGASNRATDIPDRFSGSGSGTDFTLIISRLEPEDFAVYYCQQYGISPLTFGGGTKVEIKGGGGSGGGGSGGGGSQVQLHESGPGLVKPSETLSLTCTVSGASISSYYWSWIRQPPGKGLEWIGYIYYSGTTNFNPSLKSRVTISVDTSKNQFSLRLSSVTTADTAVYYCANLALTGFHFDYWGQGTLVTVSS
notes: as for B1
B8: Ab.79 scFv-human IgG Fc (Fc fusion)
chain: DVVMTQSPLSLPVTLGQPASISCRSSQSLVYNDGNTYLTWFQQWPGQSPRRLIYKVSNRDSGVPDRFSGSGSGTDFTLKISRVEAEDIGVYHCMQGTHWPYTFGQGTKLEIKGGGGSGGGGSGGGGSQVQVQESGPGLVKSSETLSLTCTVSGGSFRSYYWSWIRQPPGKGLDYIGYMYYSGTTNYNPSLTNRVSISVDTSKNQFSLKLNSVTAADTAVYYCAREGTFDIWGQGTVVTVSS
notes: as for B1

Each binder was assayed against T1, human DLL3 protein (assay: BLI, scFv-Fc against human DLL3 protein; koff below the instrument detection limit).
A koff of less than 1e-06 s⁻¹ was found for B1 in this work.

The binders below were run against T2, DLL3 on the surface of DLL3-positive … (assay: flow cytometry on NCI-H82 cells).
An EC50 of 0.38 µg/mL was found for B2 in this work. An EC50 of 0.027 µg/mL was found for B3 in this work. An EC50 of 0.082 µg/mL was found for B4 in this work. An EC50 of 0.042 µg/mL was found for B1 in this work. An EC50 of 0.11 µg/mL was found for B5 in this work. An EC50 of 0.15 µg/mL was found for B6 in this work. An EC50 of 0.012 µg/mL was found for B7 in this work. An EC50 of 0.064 µg/mL was found for B8 in this work.

These binders were tested against T1, human DLL3 protein (assay: BLI, scFv-Fc against human DLL3 protein).
A Kd of 1.22 nM, a koff of 0.000288 s⁻¹ and a kon of 236000 M⁻¹ s⁻¹ were found for B2 in this work. A Kd of 0.299 nM, a koff of 0.000177 s⁻¹ and a kon of 591000 M⁻¹ s⁻¹ were found for B3 in this work. A Kd of 0.164 nM, a koff of 3.03e-05 s⁻¹ and a kon of 185000 M⁻¹ s⁻¹ were found for B4 in this work. A Kd of less than 0.005 nM and a kon of 193000 M⁻¹ s⁻¹ were found for B1 in this work. A Kd of 0.34 nM, a koff of 0.000182 s⁻¹ and a kon of 534000 M⁻¹ s⁻¹ were found for B5 in this work. A Kd of 0.197 nM, a koff of 6.31e-05 s⁻¹ and a kon of 320000 M⁻¹ s⁻¹ were found for B6 in this work. A Kd of 1.41 nM, a koff of 0.000597 s⁻¹ and a kon of 424000 M⁻¹ s⁻¹ were found for B7 in this work. A Kd of 0.487 nM, a koff of 0.000186 s⁻¹ and a kon of 382000 M⁻¹ s⁻¹ were found for B8 in this work.

Each binder was assayed against T2, DLL3 on the surface of DLL3-positive … (assay: flow cytometry on SHP77 cells).
An EC50 of 2.6 µg/mL was found for B2 in this work. An EC50 of 0.039 µg/mL was found for B3 in this work. An EC50 of 0.089 µg/mL was found for B4 in this work. An EC50 of 0.077 µg/mL was found for B1 in this work. An EC50 of 0.14 µg/mL was found for B5 in this work. An EC50 of 0.11 µg/mL was found for B6 in this work. An EC50 of 0.011 µg/mL was found for B7 in this work. An EC50 of 0.073 µg/mL was found for B8 in this work.

From EP4714978A1 (Neukio Biotherapeutics (Shangai ) Co., Ltd., dated 2026)
